According to patent US10689452 (UNIVERSIT T STUTTGART, dated 2020):
Numbering of substitutions follows the chain as printed.

Legend:
[1] = target: T1, human TNFR1-Fc fusion protein (human, UniProt P19438 29-211); assay: ELISA, immobilised human TNFR1-Fc
T1 construct: range 29-211; Made in stably transfected HEK293 cells; coated on ELISA plates or immobilised on QCM chips; also called huTNFR1-Fc; human TNFR-Fc; not shown: Fc part from vector pSecTagL1-Fc
T1 sequence (looked up): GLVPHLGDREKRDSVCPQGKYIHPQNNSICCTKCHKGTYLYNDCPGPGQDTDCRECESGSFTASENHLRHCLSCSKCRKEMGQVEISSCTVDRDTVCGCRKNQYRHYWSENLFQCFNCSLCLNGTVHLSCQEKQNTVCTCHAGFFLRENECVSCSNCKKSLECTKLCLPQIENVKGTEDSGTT

[2] = target: T1, human TNFR1-Fc fusion protein; assay: ELISA, immobilised human TNFR1-Fc; remark: listed apart in the source
[3] = target: T2, human TNFR1 on cells (HT1080, HeLa, Kym-1) (human, UniProt P19438 30-455); assay: cell-based or functional assay
T2 sequence (looked up): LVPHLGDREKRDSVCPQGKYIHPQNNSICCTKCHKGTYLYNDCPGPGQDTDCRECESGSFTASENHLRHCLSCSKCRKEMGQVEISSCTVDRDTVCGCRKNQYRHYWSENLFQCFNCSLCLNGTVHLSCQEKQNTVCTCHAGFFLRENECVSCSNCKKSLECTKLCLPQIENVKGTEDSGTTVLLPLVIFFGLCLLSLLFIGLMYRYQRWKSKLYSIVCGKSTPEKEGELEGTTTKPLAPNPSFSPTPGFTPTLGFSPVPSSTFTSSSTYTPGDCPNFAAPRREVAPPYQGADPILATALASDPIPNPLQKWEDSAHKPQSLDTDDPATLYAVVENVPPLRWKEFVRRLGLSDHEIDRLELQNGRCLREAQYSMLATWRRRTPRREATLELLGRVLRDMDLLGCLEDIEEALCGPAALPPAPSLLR

[4] = target: T2, human TNFR1 on cells (HT1080, HeLa, …); assay: cell-based or functional assay; remark: listed apart in the source
[5] = target: T2, human TNFR1 on cells (HT1080, HeLa, …); assay: cell-based or functional assay; remark: listed apart in the source
[6] = target: T1, human TNFR1-Fc fusion protein; assay: ELISA, human TNFR1-Fc
[7] = target: T1, human TNFR1-Fc fusion protein; assay: ELISA on coated human TNFR1-Fc, scFv titrated, signal as Binding [%]
Description: FIG. 9. Binding to and blockade of human TNFR1.
Microtiter plates were coated with 100 µl of the indicated protein (1 µg/ml in PBS, see Table 3.3) and incubated at 4° C. over night. The residual binding sites were blocked with 2% MPBS (skim milk in PBS, 200 µl per well) at room temperature for 2 hours and subsequently washed twice with PBS. 100 µl of the samples diluted in 2% MPBS were incubated at room temperature for 1 hour prior to the last incubation step with 100 µl of the HRP conjugated detection antibodies in 2% MPBS. In the case of competition experiments, both analyzed protein samples were prepared individually (either titrated or diluted to a single concentration) and mixed before they were applied to the plate. Bound protein was detected with 100 µl TMB substrate solution, the HRP-reaction was stopped by the addition of 50 µl 1 M H2SO4 and the absorption at the wavelength of 450 nm was measured using the Infinite microtiter plate reader (TECAN, Maennedorf, Switzerland). Between each incubation step and in advance of the detection, the plates were washed three times with PBST and twice with PBS.

B1: Fab13.7-MSA (Fab)
heavy: HVQLVQSGAEVKKPGSSVKVSCKASGYTFTDFYINWVRQAPGQGLEWIGEIVPSQGEAKYNDKFKARVTITADKSTSTAYMELSSLRSEDTAVYYCARWDFLDYWGQGTTVTVSSASTKGPSVFPLAPSSKSTSGGTAALGCLVKDYFPEPVTVSWNSGALTSGVHTFPAVLQSSGLYSLSSVVTVPSSSLGTQTYICNVNHKPSNTKVDKKVEPKSCGGGGSGGGGSSLEAHKSEIAHRYNDLGEQHFKGLVLIAFSQYLQKCSYDEHAKLVQEVTDFAKTCVADESAANCDKSLHTLFGDKLCAIPNLRENYGELADCCTKQEPERNECFLQHKDDNPSLPPFERPEAEAMCTSFKENPTTFMGHYLHEVARRHPYFYAPELLYYAEQYNEILTQCCAEADKESCLTPKLDGVKEKALVSSVRQRMKCSSMQKFGERAFKAWAVARLSQTFPNADFAEITKLATDLTKVNKECCHGDLLECADDRAELAKYMCENQATISSKLQTCCDKPLLKKAHCLSEVEHDTMPADLPAIAADFVEDQEVCKNYAEAKDVFLGTFLYEYSRRHPDYSVSLLLRLAKKYEATLEKCCAEANPPACYGTVLAEFQPLVEEPKNLVKTNCDLYEKLGEYGFQNAILVRYTQKAPQVSTPTLVEAARNLGRVGTKCCTLPEDQRLPCVEDYLSAILNRVCLLHEKTPVSEHVTKCCSGSLVERRPCFSALTVDETYVPKEFKAETFTFHSDICTLPEKEKQIKKQTALAELVKHKPKATAEQLKTVMDDFAQFLDTCCKAADKDTCFSTEGPNLVGGAAAHHHHHH
light: DVQMTQSPSSLSASVGDRVTITCRSSQSLLHSNGNTYLHWYQQKPGKAPKLLIYTVSNRFSGVPSRFSGSGSGTDFTLTISSLQPEDFATYYCSQSTHVPYTFGGGTKVEIKRTVAAPSVFIFPPSDEQLKSGTASVVCLLNNFYPREAKVQWKVDNALQSGNSQESVTEQDSKDSTYSLSSTLTLSKADYEKHKVYACEVTHQGLSSPVTKSFNRGEC
notes: also called Fab13.7 MSA fusion protein
B1 was tested, and the “fold increased EC50 compared to unmodified Fab13.7” value (shortened to “fold increased EC50”) [1] was 1.7 fold, the EC50 [2] was 0.0007 µM and the “fold higher IC50 (IL-8 release inhibition) compared to Fab13.7” value [3] was 1.9 fold. For the same binder, the “IL-8 Inhibition IC50 [nM] (HT1080 cells, 0.1 nM soluble TNF)” value (shortened to “IL-8 Inhibition IC50 [nM]”) [4] was 65.5 nM.

B2: Fab13.7-Fckih0DS (Fc fusion)
chain 1: HVQLVQSGAEVKKPGSSVKVSCKASGYTFTDFYINWVRQAPGQGLEWIGEIVPSQGEAKYNDKFKARVTITADKSTSTAYMELSSLRSEDTAVYYCARWDFLDYWGQGTTVTVSSASTKGPSVFPLAPSSKSTSGGTAALGCLVKDYFPEPVTVSWNSGALTSGVHTFPAVLQSSGLYSLSSVVTVPSSSLGTQTYICNVNHKPSNTKVDKKVEPKSCGTDKTHTSPPSPAPPVAGPSVFLFPPKPKDTLMISRTPEVTCVVVDVSHEDPEVKFNWYVDGVEVHNAKTKPREEQYNSTYRVVSVLTVLHQDWLNGKEYKCKVSNKGLPSSIEKTISKAKGQPREPQVYTLPPSRDELTKNQVSLSCAVKGFYPSDIAVEWESNGQPENNYKTTPPVLDSDGSFFLVSKLTVDKSRWQQGNVFSCSVMHEALHNHYTQKSLSLSPGK
chain 2: DVQMTQSPSSLSASVGDRVTITCRSSQSLLHSNGNTYLHWYQQKPGKAPKLLIYTVSNRFSGVPSRFSGSGSGTDFTLTISSLQPEDFATYYCSQSTHVPYTFGGGTKVEIKRTVAAPSVFIFPPSDEQLKSGTASVVCLLNNFYPREAKVQWKVDNALQSGNSQESVTEQDSKDSTYSLSSTLTLSKADYEKHKVYACEVTHQGLSSPVTKSFNRGECGTDKTHTSPPSPAPPVAGPSVFLFPPKPKDTLMISRTPEVTCVVVDVSHEDPEVKFNWYVDGVEVHNAKTKPREEQYNSTYRVVSVLTVLHQDWLNGKEYKCKVSNKGLPSSIEKTISKAKGQPREPQVYTLPPSRDELTKNQVSLWCLVKGFYPSDIAVEWESNGQPENNYKTTPPVLDSDGSFFLYSKLTVDKSRWQQGNVFSCSVMHEALHNHYTQKSLSLSPGK
notes: knobs-into-holes heterodimer, FcgammaR-silenced, no hinge disulfides; also called monovalent Fab13.7-Fc fusion protein
In the case of B2, the EC50 [2] is reported as 0.0005 µM, the “fold higher IC50 (IL-8 release inhibition) compared to Fab13.7” value [3] is reported as 2.3 fold and the “IL-8 Inhibition IC50 [nM]” value [4] is reported as 61.2 nM.

B3: scFvFRK13.7 (scFv, V domains shown)
VH: HVQLVQSGAEVKKPGSSVKVSCKASGYTFTDFYINWVRQAPGQGLEWIGEIVPSQGEAKYNDKFKARVTITADKSTSTAYMELSSLRSEDTAVYYCARWDFLDYWGQGTTVTVSS
VL: DVQMTQSPSSLSASVGDRVTITCRSSQSLLHSNGNTYLHWYQQKPGKAPKLLIYTVSNRFSGVPSRFSGSGSGTDFTLTISSLQPEDFATYYCSQSTHVPYTFGGGTKVEIK
In the case of B3, the “IC50 (nM), inhibition of TNF-induced IL-8 release from HT1080 cells” value [5] is reported as 284 nM and the EC50 [6] is reported as 0.00109 µM.

B4: Fab13.7PEG (Fab, V domains shown)
VH: B3 VH
VL: DVQMTQSPSSLSASVGDRVTITCRSSQSLLHSNGNTYLHWYQQKPGKAPKLLIYTVSNRFSGVPSRFSGSGSGTDFTLTISSLQPEDFATYYCSQSTHVPYTFGGGTKVEIKR
modifications: PEG (printed 'PEG400.000' in paragraph 589; methoxy-PEG 40 kDa maleimide in paragraph 649) conjugated to the newly introduced cysteine of the C-terminal ...DKTHTCAA (SEQ ID 34)
notes: also called PEGylated Fab13.7'; PEGylated derivative of Fab13.7
For B4, the “fold increased EC50” value [1] was 2.6 fold, the EC50 [2] was 0.005 µM and the “fold higher IC50 (IL-8 release inhibition) compared to Fab13.7” value [3] was 4.9 fold. The “IL-8 Inhibition IC50 [nM]” value [4] was 98.2 nM.

B5: IgG13.7half (antibody, V domains shown)
VH: B3 VH
VL: B4 VL
notes: Monovalent half IgG1
For B5, the “fold increased EC50” value [1] was 1.9 fold, the EC50 [2] was 0.0008 µM and the “fold higher IC50 (IL-8 release inhibition) compared to Fab13.7” value [3] was 1.8 fold. For the same binder, the “IL-8 Inhibition IC50 [nM]” value [4] was 63.3 nM.

B6: scFvFRK13.1 (scFv, V domains shown)
VH: QVQLVESGGGLVKPGGSLRLSCAASGFTFSDFYINWIRQAPGKGLEWVSEIYPYSGHAYYNEKFKARFTISRDNAKNSLYLQMNSLRAEDTAVYYCARWDFLDYWGQGTTVTVSS
VL: B3 VL with V2I
B6: binds [7].

B7: scFvFRK13.4 (scFv, V domains shown)
VH: B6 VH with R72A
VL: B3 VL with V2I
B7: binds [7].

B8: scFvFRK13.3 (scFv, V domains shown)
VH: B6 VH
VL: B3 VL
B8: binds [7].

B9: scFvFRK13.5 (scFv, V domains shown)
VH: B3 VH
VL: B3 VL with V2I
notes: also called scFvFKR13.5
With B9 the “IC50 (nM), inhibition of TNF-induced IL-8 release from HT1080 cells” value [5] was 367 nM and the EC50 [6] was 0.00106 µM.

B10: scFvFRK13.8 (scFv, V domains shown)
VH: B6 VH with R72A
VL: DIVMTQSPLSLPVTPGEPASISCRSSQSLLHSNGNTYLHWYLQKPGQSPQLLIYTVSNRFSGVPDRFSGSGSGTDFTLKISRVEAEDVGVYYCSQGTHVPYTFGGGTKVEIK
B10: binds [7].

B11: Fv13.7-Fckih0DS (Fc fusion)
chain 1: HVQLVQSGAEVKKPGSSVKVSCKASGYTFTDFYINWVRQAPGQGLEWIGEIVPSQGEAKYNDKFKARVTITADKSTSTAYMELSSLRSEDTAVYYCARWDFLDYWGQGTTVTVSSGTDKTHTSPPSPAPPVAGPSVFLFPPKPKDTLMISRTPEVTCVVVDVSHEDPEVKFNWYVDGVEVHNAKTKPREEQYNSTYRVVSVLTVLHQDWLNGKEYKCKVSNKGLPSSIEKTISKAKGQPREPQVYTLPPSRDELTKNQVSLSCAVKGFYPSDIAVEWESNGQPENNYKTTPPVLDSDGSFFLVSKLTVDKSRWQQGNVFSCSVMHEALHNHYTQKSLSLSPGK
chain 2: DVQMTQSPSSLSASVGDRVTITCRSSQSLLHSNGNTYLHWYQQKPGKAPKLLIYTVSNRFSGVPSRFSGSGSGTDFTLTISSLQPEDFATYYCSQSTHVPYTFGGGTKVEIKGTDKTHTSPPSPAPPVAGPSVFLFPPKPKDTLMISRTPEVTCVVVDVSHEDPEVKFNWYVDGVEVHNAKTKPREEQYNSTYRVVSVLTVLHQDWLNGKEYKCKVSNKGLPSSIEKTISKAKGQPREPQVYTLPPSRDELTKNQVSLWCLVKGFYPSDIAVEWESNGQPENNYKTTPPVLDSDGSFFLYSKLTVDKSRWQQGNVFSCSVMHEALHNHYTQKSLSLSPGK
notes: also called monovalent Fv13.7-Fc fusion protein
For B11, the EC50 [2] was 0.0003 µM and the “IL-8 Inhibition IC50 [nM]” value [4] was 30.7 nM.
